Test results: PMC12961186, “JUNO-coated beads as a functional assay to capture and characterize fertilization-competent human sperm” (Human Reproduction Open, 2026)

Biological target: T1, Recombinant human IZUMO1 ectodomain (residues 22-254) (human, UniProt Q8IYV9 22-254)
T1 construct: IZUMO1, human, UniProt Q8IYV9, residues 22-254 (ectodomain); The construct has an N-terminal BiP signal peptide for secretion and a thrombin cleavage site before the C-terminal 10xHis tag; In the bead assay the tag was probably cleaved, since the beads capture His tags (surmise); also called rIZUMO1; IZUMO1 (residues 22-254); source: Drosophila S2 cells, stably transfected, secreted; purified …
Assay: SPR; Nicoya Alto digital SPR, single-cycle kinetics, 25 °C; biotinylated JUNO (800 nM) immobilised as bait on streptavidin-coated carboxyl PEG cartridge; IZUMO1 as analyte at 1000, 333, 111, 37 and 12.3 nM; PBS pH 7.4, 0.05% Tween-20; technical triplicate
Conditions: both partners purified

T1 sequence (Q8IYV9 22-254): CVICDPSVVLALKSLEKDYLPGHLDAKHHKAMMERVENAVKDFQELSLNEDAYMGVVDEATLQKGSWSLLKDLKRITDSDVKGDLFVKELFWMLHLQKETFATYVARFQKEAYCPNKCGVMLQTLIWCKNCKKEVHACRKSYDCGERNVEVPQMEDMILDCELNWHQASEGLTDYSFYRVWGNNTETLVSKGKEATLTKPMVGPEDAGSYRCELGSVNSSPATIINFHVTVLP

Kd: 37.6 nM
koff: 0.00387 s⁻¹
kon: 103000 M⁻¹ s⁻¹
B1: Human JUNO ectodomain (residues 20-228), biotinylated (domain or fragment, UniProt A6ND01 20-228, looked up)
chain: GDELLNICMNAKHHKRVPSPEDKLYEECIPWKDNACCTLTTSWEAHLDVSPLYNFSLFHCGLLMPGCRKHFIQAICFYECSPNLGPWIQPVGSLGWEVAPSGQGERVVNVPLCQEDCEEWWEDCRMSYTCKSNWRGGWDWSQGKNRCPKGAQCLPFSHYFPTPADLCEKTWSNSFKASPERRNSGRCLQKWFEPAQGNPNVAVARLFAS
modifications: biotin (EZ-link Sulfo-NHS-LC-Biotin, 1:1 molar ratio); glycosylated
notes: JUNO, human, UniProt A6ND01, residues 20-228 (ectodomain); The construct has an N-terminal BiP signal peptide for secretion and a thrombin cleavage site before the C-terminal 10xHis tag; also called recombinant JUNO; rhJUNO; source: Drosophila S2 cells, stably transfected, secreted; purified (Ni-NTA, SEC)
